# Measurements reported in publication PMC13137973.
# pIC50, pKd: −log10 of the molar value.
# How the values were obtained:
# [1] = biological target: Biotinylated human TNFR2 protein (human) (UniProt P20333); experiment: BLI
# [2] = biological target: human immunodeficiency virus 1 (HIV-1) (group M, subtype B, Isolate MN) gp120 Protein (HIV-1 (group M, subtype B, isolate MN)) (UniProt P05877); experiment: flow cytometry on cells
# Chain of recombinant TNFR2 protein (soluble, exogenous) (P20333 23-257): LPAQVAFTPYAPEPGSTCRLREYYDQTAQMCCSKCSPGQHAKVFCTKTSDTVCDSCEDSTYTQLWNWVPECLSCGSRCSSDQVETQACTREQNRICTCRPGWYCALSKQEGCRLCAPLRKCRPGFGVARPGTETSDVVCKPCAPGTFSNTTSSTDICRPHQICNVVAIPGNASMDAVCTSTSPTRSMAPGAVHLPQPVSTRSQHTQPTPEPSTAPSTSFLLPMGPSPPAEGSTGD
# Chain of Biotinylated human TNFR2 protein (human) (P20333 23-257): as above
Substance,pKd [1],pIC50 [2],reduction in gp120 binding to Jurkat cells [2]
"human immunodeficiency virus 1 (HIV-1) (group M, subtype B, Isolate MN) gp120 Protein (from UniProt P05877 30-513) (natural protein)",7.06,–,–
"recombinant TNFR2 protein (soluble, exogenous) (from UniProt P20333-1 23-257) (domain or fragment)",–,6.97,65%
